Data from the nanobody polyreactivity screen of Harvey et al. (2022).

experiment: yeast display, Sf9 membrane polyspecificity reagent, FACS + sequencing; frameworks hold sequencing errors
Method in brief: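 A synthetic nanobody library was expressed on Saccharomyces cerevisiae BJ5465 by galactose induction for 36–48 hours. The library was stained for 1 hour at 4 °C with 10% biotinylated, detergent-solubilized Sf9 membrane reagent and enriched with streptavidin microbeads before FACS. Low and high (top ~1%) gates were set on anti-HA fluorescence for expression and streptavidin fluorescence for reagent binding, and each polyreactivity label reflects the gate of origin.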

Sequence	polyreactivity (PSR sort gate)
QVQLVESGGGLVQAGGSLRLSCAASGITFHRNTMGWYRQAPGTETELVDSITSGGITYYADSVKGSFTISRDNEKNTVYLQMNSLKPEDTAVYYCAAEGYWTYWVARSDIPYFYWGQGSQVTVSS	high polyreactivity
QDQLVESGGGLVQAGGSLRLSCAASGSTFPLYAMGSYREAPGKERELVADITVSGGSTYYADSVKGRFTISRDNAKNTVYLQMNSLNPEDTAVYYCNADDRSPFPDYWWYPYDYDYGGQGTQVTVSS	low polyreactivity
QVQLVESGGGLVQAGGSLRLSCAASGRTLSHYAMGWYRQAPGKERELVAAITRSGGSTYYADSVKGRFTISRDNAKNTVYLQMNSLKPEDTAVYYCNKTLYTTYDYWGQGTQVTVSS	low polyreactivity
QVQLVESGGGLVQAGGSLRLSCADSGLTFYDYAMGWYRQAPGKERELVADIDFNGGSTSYADSVKGRFTISRDNAKNTVYLQMNSLKPEDTAVYYCNTRDRGDVVTGLDYWGQGTQVTVSS	low polyreactivity
QVQLVESGGGLVQAGGSLRLSCAASGTTIYTNAKGWYRQAPGKEREFVAAISWSGSSTYADSVKGRFTISRDNAKNTFYLQMNSLKPEDTAVYYCAADWFKQRTDYYWGQGTQVTVSS	low polyreactivity
QVQLVESGRGLVQEGGSLRLSCAASGRIFSAYAMGWYRQAPVKERELVAAITWSGANTDYADSVKGRFTISRDNAKNNVYLQMNSLKPEDTAVYYCNASVGRDSAYDYLGQGTQVTVSS	low polyreactivity
QVQLVESGGGLVQAGGSLRLSCAASGRTFPYNAMGWYRQAPGKERELVAAISGRGGSTYYADSVKGRFTISRDNAKNTVYLQMNSLKPEDTAVYYCAARLPWSYYRTQGYNYWGQGTQVTVSS	high polyreactivity
QVQLVESGGGLVQAGGSLRLSCAASGSTFSRYAMGWYRQAPGKEREMVAAINTRGGSTYYADSVKGRFTISRDNSKNTVYLQMNSLKPEDTAVYYCARRFYGFGPYYPFDYWGQGTQVTVSS	low polyreactivity
QFQLVESGGGLVQAGGSLRLSCAASGSTINPNTMVWSREAPGKERELVAVISSGGSTYYADSVKGRFTISRDNATNTVYLQMNSLKPEDSAVYYCAADRGTVSYLYCPRAVYYWGQGTQVTVSS	low polyreactivity
QVQLVESGGGLVQAGGSLRLSCAASGFTFKWYTMGWYRPAPGKERELVAGISRRGGSTYYADSVKGRFTISRDNAKNTVYLQMNSLKPEDTAVYYCARRFLYPYDHWGQGTQVTVSS	high polyreactivity
QVQLVESGGGLVQEGGILPLSCAASGRIFGTYAMGWYRQAPGKERELVAAISSSGTSTYYADSVKGRFTISRDNAKNTVYLPMNSLKPEDTAVYYCAARYPRTAYDYWGQCTQVTVSS	low polyreactivity
QVQLVESGGGLVQAGGSLRLSCAASGSIFADNAMGWYRQAPGKERELVAAITRGGSTYYADSVKGRFTISRDNAKNTVYLQMNSLKPEDTAVYYCAAGTTTYSVNEVPVREGYDYWGQGTQVTVSS	low polyreactivity
QVQLVDSGGGLVQAGGSLRLSCSASRSNFVYNAIGWYRKAPWKERELVTGISGGGGTNYADSVKGRFTISRDNEKNTVYLQMNSLKPEDTAVYYCAAEQNYIEFDYWGQGTQVTVSS	low polyreactivity
QVHLVESGGGLVMAVGSLRLSCAASGFTFVGYAMGWYRQAPGKERELVATITRVGSTNYADSVKGRFTISRDNAKNTVYLQMNSLKPEDTAVYYCNTRRVYGHGKSPYDSWGQGTQVTVSS	low polyreactivity
QVQLVESGGGLVQAGGSLRLICAASGFTFPSYAMGWYRQAPGKEREFVAGITKGGGNTYYADSVKGRFTISRDNAKNTVYLQMNSLIPEDTAVYYCAADRSSFYWSHGTVYGYDYWGQGTQVTVSS	low polyreactivity
QVQLVESGGGLVQAGGSLRLSCPASGFIYWSYAMGWYRQAPGKERELVADIDSDASTDYADSVKGRFTITRDNAKNTVYLQMNSLKPEDTAVYYCAALASIQQYPGNFYYWGQGTQVTVSS	high polyreactivity
QVQLVESWGALVQAGGSLRLSCAPSGSSKLMLWEGIDRRLGNKGSWLPLIVLVVLRNYADSVKGRFTISRDNAKNTLYLQMNSLKPDDTAVYYCAATPIGSGGWGDYWGQGTQVTLSS	low polyreactivity
QVQLVESGGGLVQAGGSLRLSCAASGFTFNCYAMGWYRQAPGKERELVARIRWRGSTYYADSVKGRFTISRDNAKNTVYLQMNSLKPEDTAVYYCAARYYTKLYWGQGTQVTVSS	high polyreactivity
QVQLVESVGGLVQAGGSLRLSCAASGSTISLYKGWYRQAPGNETELVAAITYSGGRTYYADSVKGRFTISRDNAKNTVYLQMNSLKPEDTAVYYCATVFNDLTVYEYWSRFDYWGQGTQVTVSS	low polyreactivity
QVQLVESGGGLVQAGGSLRLSCAASGFTFLYNTMGWYRQAPGKERELVAAISIRGGSTYYADSVKGRFTISRDNAKNTVYLQMNSLKPEETAVYYCAARTPPPSSRSRVYYWGLGTQVTVSS	high polyreactivity
QDQLVESGGGLVQAGGSLRLSCAASGITFSGNAKGCYRQAPGKETELVAAISRNGGRTYYADSVKGRFTISRDNAKNTVYLQMNSLKQEDTAVYYCAKDAYGYFRVSAWYYTYDYWGQGTQVTVSS	high polyreactivity
QVQLVESGGGLVQAGCSLRLSCAASGRTFTLNAMGWYRQAPGKERELVADITYSDGDTYYADSVKGRFTISRDNAKNTVYLQMNSLIPEDTAGYYCAAGGYTDPGYEYWGQGTQVTVSS	low polyreactivity

Sequence	polyreactivity (PSR sort gate)
QVQLVESGGGLVQAGGSLRLSCAASGIIFRFYAMGWYRQAPGKERELVAVITSRSDSTYYADSVKGRFTISRDNAKNTVYLQMNSLKPEDTAVYYCNARYPWYYRYSTYDYWGQGTQVTVSS	high polyreactivity
QVQLVESGGGLVQAGGSLRLSCAASGIIFRYYAMGWYRQAPGKERELVAAITVNGGRTYYADSVKGRFTISRDNAKNNVYLQMNSLKPEVTAVYYCAAYPHRYRVTPYPSVVSLDNYWGQGTQVTVSS	low polyreactivity
QVQLVESGGGLVQAGGSLRLSCAASGFTFKSNAMGWYRPSPGKERELVAAITWNGGSTYADSEKGRFTISRDNAKNTVYLQMNSLKPEDTAVYYCAARPYPHSAYEGDYWGRGTQVTVSS	low polyreactivity
QDQLVESGGGLVQAGGSLRLSCAASGIIFAWYVMGWYRQAPGKERELVATITSSGGRTYYADSVKGRFTISRDNAKNTVYLQMNSLKPEDTAVYYCNAALTRAFKHSTGYDYWGQGTQVTVSS	low polyreactivity
QVQLVESGGGLVQAGGSLRLSCAASGLTFDVYTMGWYRQAPGKERELVATISETYYADSVKGRFTISRDNAKNTVYLQMNSLKPEDTAVYYCAANGFKAQYRDIVYDYGYWGQGTQVTVSS	low polyreactivity
QVQLVESGGGIVQAGGSLRLICAASGSTFYPYAMGWYRQAPGKERELVAGISWSGGSTYYADSVKGRFTISRDNAKYTVYLQMNSLKPEDTAVYYCAVDVYWSVIYDYWGQGTQVTVSS	low polyreactivity
QVQLVESGGGLVQAGGSLRLSCAASGSIFVDYAMGWYRQAPGKERELVASISGGGSSTYYADSVMGRFTISRDNAKNTVYLQMNSLKPEDTALYYCARDGVRSSSEYDYWGQGTQVTVSS	low polyreactivity
QVQLVESGGGLVQAGGSLRLSCAASGIIFGRYAMGWYRQATGTVRELVAASTRSGGRTYYADTVKGRFTISRDYAKNTVFVQMNSLKPEDTAVYYCSADASGHSYDYWGQGTQVTVSS	high polyreactivity
QVQLVESGGGLVQAGGRLRLSCAASGFTFKKNAMGWYRQAPGKERELVAAIRSGTSTKYADSVKGRFTISRDNAKNTVYLQMNSLKPEDTAVYYCAAEEPEYLATWRNRRYDYWGQGTQVTVSS	low polyreactivity
QFQLVESGGGLVQAGGSLRLSCAASGFIFKSNAMGWYRQAPGKERELVAAITKRGGSTYYADSVKGRFTISGDYAKNTVYLQMNSLKPEDTAVYYCAVRKPYSRYTVNYDSWGQGTQVTVSS	high polyreactivity
QVQLVESGGGLVQAGGSLRLSCAASGSTFEYNAMGWYRQAPGKERELVASSTNYADSVKGRFTISRDNAKNTVYLQMNSLKPEDTAVYYCARVQGVNRNHDYWGQGTQVTVSS	low polyreactivity
EEELVESGGGLVQAGGSLLLSCAAYGRILPRNDMGWYRQAPGKERELVAVISSGGSTYYPDSVKGRFTISRDNAKNTVYLQINSVKPEDTAVYYCLGGYYYLQYDYWGQGTQVTVSS	low polyreactivity
QVQLVESGGGLVQAGGSLRLSCAASGRIFSINAMGWYRQAPGKEREFVATISDRGSTTSYADSVKGRFTISGDNAKNTVDLQMNSLKPDDTAVYYCAARSYYRYDYWGQGTQVTVSS	high polyreactivity
QVQLVESGGGLVQAGGSLRLSCAASGFIFVPYAMGWYRQAPGQERELVAAISSSGGSTNYTDSVKGRFTISRDNAKNSVYLQMNRLKPEDTAVYYCAAATWYVNPTHFNRYSEFYYWGQGTQVTVSS	low polyreactivity
QVQLVESGGGLVQAGGSLRLSCAASGLIFHPYTMGWYRQAPGKERELVAAITSTGGSTYYADSVKGRFTISRDNAKNTVYLQMNSLKPEDTAVYYCATDYGYYDYWGQGTQVTVSS	low polyreactivity
QVKLVESGGGLVQAGGSLRLSCAASGTFYYNTMGWYIQAPGTERELVAAITSGGRTYADSVKGRFTISRDNAKNTVYLQMNSLKPEDTAVYYCAASWYFFSPGGTFGYWGQGTQVTVSS	low polyreactivity
QVQLVESGGGLVQAGGSLRLSCAASGSIFANYAMGWYRQAPGKERELVAAISRGGGTTYYADSVKGRFTISRDNAKNTVYLQMNSLKPEDTAVYYCAAARRYATQFHYDSWGQGTQVTVSS	high polyreactivity
QVHLVESGGGLVQAGGSLRLSCAASGSTIFLYMGWYRQAPGKERELVAAITVSGGSTYYADSVKGRFTISRDNAKNTVYLQMNSLKPEDTAVYYCNADWVLRYDYWGLGTQVTVSS	low polyreactivity
QVQLVESGGGLVQAGGSLRLSCAASGRTFDYYVMGWYRQAPGKERELVAAITSGGSTYYADSVKGRFTISRDNAKNTVYLQMNSMKPEDTAVYYCNNVRGAFYSHLFDYWGQGTQVTVSS	high polyreactivity
QVQLEESGGGLVQAGGSLRLTCAASGLIFHDYAMGWYRQATGTEMELVAAISWSDGTTYYADSVKGRFTISRDNAKITVYLQMNSLKPEDTAVYYCAAEEVSGWEYDFWGQGTQVTVSS	high polyreactivity
QVQLVESGGGLVQAGGSLRLSCAASGLTFGTNAMGWYIQAPGKERELVAAISTSSGSTYYADSVKGRFTISRDNAKNTVYLQMNSLKPEDTAVYYCAAVTVTKLSYYRYYYWGQGTQVTVSS	low polyreactivity
